Patent US10562935B2, “Stapled peptides and uses thereof” (London Health Sciences Centre Research Inc., priority 2015, dated 2020)
Bridges are numbered along the chain shown (N, C = ends).

Key:
[1] = Circular dichroism (CD) spectroscopy of linear and stapled peptides in water or 40% TFE/water (Example 3); type: physicochemical; conditions: for [0]208 mean residue ellipticity: λ = 208 nm; for [0]222 mean residue ellipticity: λ = 222 nm
Outline: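 Spectra 180–260 nm at 20 °C, 0.5 mM N-acetylated, C-amidated peptides in 0.1M phosphate buffer (water) or 40% TFE/water, 1 mm path, five scans averaged, buffer baseline subtracted. Mean residue ellipticity reported at 222 and 208 nm with the 222/208 ratio as helicity index.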

[2] = test system: RHAMM-overexpressing (LR21) cells; assay: Cell migration assay (Boyden chamber, Chemicon ECM510); type: cell-based; conditions: for inhibition of cell migration (in words): 10 ng/mL peptide, 20 hours, compared to 30% serum control; for Migration (% inhib.): % inhibition relative to positive control
Outline: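 Serum-starved LR21 cells (7.5×10^4) placed in the upper Boyden chamber with or without 10 ng/mL peptide, with 30% FBS in DMEM as lower-chamber chemoattractant. Cells crossing the membrane after 20 h quantified by CyQUANT GR fluorescence (480/520 nm); mean of n=3, compared with 30% serum control.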

NF-κB = assay: Inflammation assay: NF-κB inducible SEAP reporter in RAW-Blue macrophages stimulated with PAM3CSK4; type: cell-based, murine; conditions: % inhibition relative to positive control
Description: Compounds 132, 133, 135, 150, 152, 157-161, 265-269, 275, 277, and 278 were evaluated for their ability to inhibit inflammation. To determine the effect of the peptides on inflammation, commercially available murine RAW 264.7 macrophages carrying a secreted embryonic alkaline phosphatase (SEAP) reporter that is inducible by NF-κB (RAW-Blue; InvivoGen, San Diego, Calif., USA) were used. Cells were grown to 80% confluence in DMEM containing 4.5 g/L glucose, 10% heat-inactivated fetal bovine serum, 2 mM L-glutamine, 50 μg/mL penicillin/streptomycin, 100 μg/mL Normocin (InvivoGen) at 37° C. in 5% CO2. For peptide screening experiments, cells were scraped in growth medium, counted, and plated to flat-bottom 96-well plates at a density of 5×10^4 cells/well either in the presence or absence (control) of 200 ng/mL TLR1/TLR2 agonist PAM3CSK4 (InvivoGen). Peptides were added in 6 replicate wells at a dose of 10 ng/mL in the presence of PAM3CSK4. After 18 hours of stimulation, SEAP concentrations (indicating NF-κB activity) were measured in the supernatants collected from the RAW-Blue cells using QUANTI-BLUE reagent (InvivoGen). After 20 minutes of incubation at 37° C., SEAP levels were determined using spectrophotometry at a wavelength of 630 nm.
Values are the mean and SDM of n=3 replicates. *p<0.05 and ***p<0.001 compared to +PAM3. In FIGS. 44 and 45, where bars are labeled with two compound numbers (“133/150” and “135/152”) this means that the data were pooled for the indicated compounds, i.e., for the non-acetylated and acetylated versions of the indicated peptides.

[3] = test system: IMR90 human fetal lung fibroblasts; assay: Fibrosis assay: active TGF-β levels in TGF-β treated fibroblasts (ELISA); type: cell-based; conditions: for Fibrosis (% inhib.): % inhibition relative to positive control
Description: Compounds 132, 133, 135, 150, 152, 157-161, 265-269, 275, 277, and 278 were evaluated for their ability to inhibit fibrosis. IMR90 human fetal lung fibroblasts were obtained from ATCC and maintained in DMEM supplemented with 10% fetal bovine serum. In order to examine the effect of peptides on myofibroblast differentiation, 80% confluent cultures were serum starved overnight prior to addition of TGF-β (2 ng/mL, R&D Systems). Cells were treated with TGF-β for 24 hours prior to addition of peptides (10 ng/mL). 48 hours after addition of peptides, culture supernatants were collected and levels of active TGF-β measured using commercially available TGF-β ELISA (Quantikine, R&D Systems).
Values are the Mean and SDM n=3 replicates. *p<0.05, **p<0.01, ***p<0.001 when compared to the +TGFβ1 control. In FIG. 47, where bars are labeled with two compound numbers (“133/150” and “135/152”) this means that the data were pooled for the indicated compounds, i.e., for the non-acetylated and acetylated versions of the indicated peptides.

[4] = [θ]222/[θ]208 ratio in water, summary tables 15, 17, 19
[5] = as repeated in tables 16, 18, 20

| Substance | [0]208 mean residue ellipticity at λ=208 nm ([1]; 40% TFE/water) | [0]222/[0]208 ratio of ellipticities ([1]; 40% TFE/water) | [0]222 mean residue ellipticity at λ=222 nm ([1]; 40% TFE/water) | [θ]222/[θ]208 ratio of ellipticities [1, 4] | [θ]222/[θ]208 ratio of ellipticities [1, 5] | [0]222/[0]208 ratio of ellipticities ([1]; in water) | alpha-helical character by CD (in words) ([1]; in water) | [0]208 mean residue ellipticity at λ=208 nm ([1]; water) | [0]222/[0]208 ratio of ellipticities ([1]; water) | [0]222 mean residue ellipticity at λ=222 nm ([1]; water) | inhibition of cell migration (in words) [2] | Migration (% inhib.) [2] | Inflammation (% Inhib.) (NF-κB) | inhibition of fibrosis (active TGF-β, in words) ([3]; 10 ng/mL peptide, 48 hours, compared to +TGFβ1 control) | Fibrosis (% inhib.) [3] | [0]222/[0]208 ratio of ellipticities ([1]; in 40% TFE/water) | [0]208 mean residue ellipticity ([1]; in 40% TFE/water) | [0]208 mean residue ellipticity ([1]; in water) | [0]222 mean residue ellipticity ([1]; in 40% TFE/water) | [0]222 mean residue ellipticity ([1]; in water) |
| --- | --- | --- | --- | --- | --- | --- | --- | --- | --- | --- | --- | --- | --- | --- | --- | --- | --- | --- | --- | --- |
| Ac-(cyclo-10-14, cyclo-15-19)-KIKHVVKLK[EENSK][EKSEK]SKLRSQLVKRK-NH2 (Ac-KIKHVVKLKEENSKEKSEKSKLRSQLVKRK-NH2; lactam 10-14, 15-19; SMILES CC[C@H](C)[C@H](NC(=O)[C@H](CCCCN)NC(C)=O)C(=O)N[C@@H](CCCCN)C(=O)N[C@@H](Cc1c[nH]cn1)C(=O)N[C@H](C(=O)N[C@H](C(=O)N[C@@H](CCCCN)C(=O)N[C@@H](CC(C)C)C(=O)N[C@@H](CCCCN)C(=O)N[C@H]1CCC(=O)NCCCC[C@@H](C(=O)N[C@H]2CCC(=O)NCCCC[C@@H](C(=O)N[C@@H](CO)C(=O)N[C@@H](CCCCN)C(=O)N[C@@H](CC(C)C)C(=O)N[C@@H](CCCNC(=N)N)C(=O)N[C@@H](CO)C(=O)N[C@@H](CCC(N)=O)C(=O)N[C@@H](CC(C)C)C(=O)N[C@H](C(=O)N[C@@H](CCCCN)C(=O)N[C@@H](CCCNC(=N)N)C(=O)N[C@@H](CCCCN)C(N)=O)C(C)C)NC(=O)[C@H](CCC(=O)O)NC(=O)[C@H](CO)NC(=O)[C@H](CCCCN)NC2=O)NC(=O)[C@H](CO)NC(=O)[C@H](CC(N)=O)NC(=O)[C@H](CCC(=O)O)NC1=O)C(C)C)C(C)C) [Compound 266] | -2.11E04 deg cm^2 dmol^−1 | 0.84 | -1.77E04 deg cm^2 dmol^−1 | 0.63 | 0.63 | 0.63 | best improvement in helicity | -9.36E+03 deg cm^2 dmol^−1 | 0.63 | -5.89E+03 deg cm^2 dmol^−1 | significantly inhibit cell migration | 61 % inhib. | 0 % Inhib. | strong trend towards inhibition of fibrosis | 24 % inhib. | – | – | – | – | – |
| Ac-(cyclo-4,8)-NLK[EKIKK]VVKLKDE-NH2 (Ac-NLKEKIKKVVKLKDE-NH2; lactam 4-8; SMILES CC[C@H](C)[C@@H]1NC(=O)[C@H](CCCCN)NC(=O)[C@@H](NC(=O)[C@H](CCCCN)NC(=O)[C@H](CC(C)C)NC(=O)[C@H](CC(N)=O)NC(C)=O)CCC(=O)NCCCC[C@@H](C(=O)N[C@H](C(=O)N[C@H](C(=O)N[C@@H](CCCCN)C(=O)N[C@@H](CC(C)C)C(=O)N[C@@H](CCCCN)C(=O)N[C@@H](CC(=O)O)C(=O)N[C@@H](CCC(=O)O)C(N)=O)C(C)C)C(C)C)NC(=O)[C@H](CCCCN)NC1=O) [Compound 157] | – | – | – | 0.38 | 0.38 | 0.38 | decreased helicity | – | – | – | – | 0 % inhib. | 0 % Inhib. | – | 38 % inhib. | 0.80 | -1.56E+04 deg cm^2 dmol^−1 | -6.40E+03 deg cm^2 dmol^−1 | -1.25E+04 deg cm^2 dmol^−1 | -2.46E+03 deg cm^2 dmol^−1 |
| Ac-(cyclo-10-14, cyclo-15-19)-KIKHVVKLK[KENSE][EKSEK]SKLRSQLVKRK-NH2 [Compound 269] | -2.65E04 deg cm^2 dmol^−1 | 0.81 | -2.14E04 deg cm^2 dmol^−1 | 0.44 | 0.44 | – | – | -9.04E+03 deg cm^2 dmol^−1 | 0.44 | -3.99E+03 deg cm^2 dmol^−1 | significantly inhibit cell migration | 61 % inhib. | 0 % Inhib. | – | 0 % inhib. | – | – | – | – | – |
